Results published in patent US20200216495A1 (ADRX, published 2020).
Several values for one entry are separate records, joined by “and”; a condition that tells them apart may be missing. Identical values can stand only once. Square brackets hold non-standard residues; d marks the D form. Ends that are not written are not given here.

target: Tau40 P301L protein (human); assay: cell-based or functional assay

Row | Binder | IC50, Tau40 assay (ThT)
1 | [dF][dK][dI][dH][dI][dK][dH][dY] [fkihikhy (PEPTIDE ID NO: 127)] | 1650 nM and 1790 nM
2 | [dT][dK][dI][dR][dI][dH][dY] [tkirihy (PEPTIDE ID NO: 283)] | 1630 nM
3 | [dF][dR][dV][dR][dI][dR][dH][dW] [frvrirhw (PEPTIDE ID NO: 118)] | 1310 nM
4 | [dF][dW][dR][dL][dK][dV][dR][dW] [fwrlkvrw (PEPTIDE ID NO: 261)] | 1320 nM
5 | [dR][dI][dK][dI][dR][dW] [rikirw (PEPTIDE ID NO: 26)] | 1400 nM and 1490 nM
6 | [dF][dK][dL][dK][dL][dR][dH][dW] [fklklrhw (PEPTIDE ID NO: 125)] | 1340 nM and 1360 nM
7 | [dE][dI][dR][dL][dH][dW] [eirlhw (PEPTIDE ID NO: 74)] | 1540 nM
8 | [dL][dK][dI][dQ][dI][dH][dY] [lkiqihy (PEPTIDE ID NO: 285)] | 1640 nM
9 | [dF][dK][dI][dK][dI][dK][dW] (not fully specified; printed as fkikikw) [fkikikw (PEPTIDE ID NO: 60)] | 1570 nM and 1650 nM
10 | [dL][dK][dI][dH][dI][dR][dH][dW] [lkihirhw (PEPTIDE ID NO: 148)] | 1290 nM and 1390 nM
11 | [dW][dH][dL][dR][dI][dR][dW] [whlrirw (PEPTIDE ID NO: 19)] | 1540 nM and 1630 nM
12 | [dR][dI][dR][dI][dR][dW] [ririrw (PEPTIDE ID NO: 75)] | 1470 nM and 710 nM
13 | [dH][dW][dR][dL][dK][dV][dR][dW] [hwrlkvrw (PEPTIDE ID NO: 266)] | 1420 nM
14 | [dR][dT][dL][dK][dI][dV][dW][dR] [rtlkivwr (PEPTIDE ID NO: 22)] | 1670 nM
15 | [dF][dH][dI][dR][dI][dR][dH][dW] [fhirirhw (PEPTIDE ID NO: 138)] | 1260 nM and 1310 nM
16 | [dF][dW][dL][dK][dL][dR][dW][dF] [fwlklrwf (PEPTIDE ID NO: 15)] | 1380 nM and 2080 nM
17 | [dR][dW][dR][dW][dR][dW] [rwrwrw (PEPTIDE ID NO: 17)] | 1460 nM
18 | [dF][dK][dL][dH][dL][dR][dH][dW] [fklhlrhw (PEPTIDE ID NO: 126)] | 1390 nM and 1510 nM
19 | [dL][dK][dI][dR][dI][dY][dY] [lkiriyy (PEPTIDE ID NO: 277)] | 1570 nM

Row | Binder | IC50, Tau40 assay (ThT)
20 | [dL][dR][dL][dH][dL][dR][dH][dW] [lrlhlrhw (PEPTIDE ID NO: 149)] | 1640 nM and 2060 nM
21 | [dL][dK][dV][dR][dW][dW][dW][dR] [lkvrwwwr (PEPTIDE ID NO: 199)] | 700 nM
22 | [dF][dR][dI][dR][dL][dR][dW] [frirlrw (PEPTIDE ID NO: 56)] | 1460 nM
23 | [dL][dK][dI][dR][dL][dH][dH][dW] [lkirlhhw (PEPTIDE ID NO: 143)] | 1420 nM and 1070 nM
24 | [dK][dL][dK][dL][dR][dW][dF] [klklrwf (PEPTIDE ID NO: 438)] | 1670 nM
25 | [dH][dR][dL][dK][dV][dR][dW][dW] [hrlkvrww (PEPTIDE ID NO: 265)] | 1410 nM
26 | [dL][dH][dI][dK][dL][dR][dW][dH] [lhiklrwh (PEPTIDE ID NO: 151)] | 1650 nM and 1830 nM
27 | [dL][dK][dI][dR][dI][dA][dY] [lkiriay (PEPTIDE ID NO: 271)] | 1480 nM
28 | [dF][dK][dI][dH][dL][dR][dH][dW] [fkihlrhw (PEPTIDE ID NO: 124)] | 1340 nM
29 | [dL][dK][dI][dR][dI][dH][dR][dH] [lkirihrh (PEPTIDE ID NO: 274)] | 1510 nM
30 | [dR][dL][dR][dI][dR][dW] [rlrirw (PEPTIDE ID NO: 27)] | 1610 nM
31 | [dL][dK][dI][dR][dI][dH][dY][dA] [lkirihya (PEPTIDE ID NO: 269)] | 1450 nM
32 | [dH][dL][dK][dI][dR][dI][dH][dY] [hlkirihy (PEPTIDE ID NO: 259)] | 1250 nM
33 | [dL][dR][dI][dR][dI][dR][dF][dH] [lririrfh (PEPTIDE ID NO: 152)] | 1410 nM and 1870 nM
34 | [dW][dE][dL][dK][dV][dR][dW][dW] [welkvrww (PEPTIDE ID NO: 264)] | 1390 nM
35 | [dF][dR][dI][dK][dL][dR][dW] [friklrw (PEPTIDE ID NO: 47)] | 1370 nM and 1460 nM
36 | [dV][dR][dW][dW][dK][dL][dR][dW] [vrwwklrw (PEPTIDE ID NO: 196)] | 680 nM
37 | [dF][dR][dL][dR][dI][dW][dW] [frlriww (PEPTIDE ID NO: 423)] | 1410 nM
38 | [dW][dK][dV][dK][dI][dQ][dY][dH] [wkvkiqyh (PEPTIDE ID NO: 100)] | 1560 nM and 1610 nM

Further lines, results first:

Row | IC50, Tau40 assay (ThT) | Binder
39 | 1290 nM and 1110 nM | [dW][dR][dL][dR][dI][dH][dW][dW] [wrlrihww (PEPTIDE ID NO: 20)]
40 | 1490 nM | [dW][dR][dL][dR][dI][dA][dW] [wrlriaw (PEPTIDE ID NO: 272)]
41 | 1520 nM | [dW][dR][dL][dK][dV][dR][dW][dE] [wrlkvrwe (PEPTIDE ID NO: 275)]
42 | 1270 nM and 1430 nM | [dY][dR][dV][dR][dI][dE][dW][dL] [yrvriewl (PEPTIDE ID NO: 159)]
43 | 1540 nM and 1570 nM | [dW][dR][dV][dQ][dV][dR][dW] [wrvqvrw (PEPTIDE ID NO: 102)]
44 | 690 nM | [dW][dL][dK][dI][dR][dI][dH][dY] [wlkirihy (PEPTIDE ID NO: 198)]
45 | 1620 nM | [dW][dR][dL][dK][dV][dQ][dW] [wrlkvqw (PEPTIDE ID NO: 281)]
46 | 1580 nM | [dW][dR][dL][dK][dV][dR][dR][dW] [wrlkvrrw (PEPTIDE ID NO: 278)]
47 | 1330 nM | [dW][dR][dL][dR][dI][dH][dT] [wrlriht (PEPTIDE ID NO: 262)]
48 | 1560 nM | [dW][dR][dT][dK][dV][dR][dW] [wrtkvrw (PEPTIDE ID NO: 276)]
49 | 1640 nM | [dW][dR][dL][dK][dV][dR][dE][dW] [wrlkvrew (PEPTIDE ID NO: 284)]
50 | 1600 nM | [dW][dR][dL][dQ][dV][dR][dW] [wrlqvrw (PEPTIDE ID NO: 280)]
51 | 680 nM | [dW][dR][dL][dK][dV][dR][dW][dL] [wrlkvrwl (PEPTIDE ID NO: 197)]
52 | 1360 nM | [dW][dR][dL][dK][dF][dR][dW] [wrlkfrw (PEPTIDE ID NO: 263)]
53 | 700 nM | [dW][dR][dL][dR][dL][dR][dW] [wrlrlrw (PEPTIDE ID NO: 200)]
54 | 1430 nM | [dY][dW][dR][dL][dK][dV][dR][dW] [ywrlkvrw (PEPTIDE ID NO: 268)]
55 | 700 nM and 810 nM | [dW][dK][dV][dW][dV][dR][dY][dW] [wkvwvryw (PEPTIDE ID NO: 92)]
56 | 1270 nM and 990 nM | [dW][dK][dV][dW][dV][dR]G[dW] (not fully specified (residue 7); printed as wkvwvrgw) [wkvwvrgw (PEPTIDE ID NO: 93)]
57 | 1610 nM and 750 nM | [dW][dR][dL][dK][dV][dR][dW][dW] [wrlkvrww (PEPTIDE ID NO: 3)]
58 | 1490 nM | [dW][dQ][dL][dK][dV][dR][dW] [wqlkvrw (PEPTIDE ID NO: 273)]
59 | 1290 nM | [dW][dR][dL][dW][dI][dH][dW] [wrlwihw (PEPTIDE ID NO: 428)]
60 | 1280 nM | [dW][dR][dL][dR][dM][dH][dW] [wrlrmhw (PEPTIDE ID NO: 260)]
